Assay in all cases: Batched (one-pot) yeast mating assay, barcode sequencing
What all share (type): cell-based

For one experiment, the target named is T1, BclW (Homo sapiens, UniProt Q92843).
T1 sequence (Q92843 1-193): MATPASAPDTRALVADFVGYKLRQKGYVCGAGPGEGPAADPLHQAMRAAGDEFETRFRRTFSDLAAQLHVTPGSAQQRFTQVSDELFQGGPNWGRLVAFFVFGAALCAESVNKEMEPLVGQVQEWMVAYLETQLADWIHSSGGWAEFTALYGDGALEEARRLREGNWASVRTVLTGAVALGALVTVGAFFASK
The conditions noted are these: vs BclW. On the procedure: (§1) For a many-to-many (also see Example 6) batched mating assay, multiple haploid yeast strains of each mating type are combined in a fresh 3 mL YPD culture. The recombinant MATa yeast strains are added in equal concentrations for a total density of 100 cells/μL and the recombinant MATalpha yeast strains are added in equal concentrations for a total density of 600 cells/μL. After 6 hours of growth, hygromycin is added at 100 ng/μL and β-estradiol (PE) is added at 200 ng/μL. 20 hours after the initial culture inoculation, 1 mL of cells are pelleted. 2 μL of cells are removed from the pellet, lysed with 0.2% SDS, spun down to remove all cellular debris, and diluted in water. The lysate is then used as a template for a PCR with standard primers containing overhangs for next generation sequencing and the PCR product, expected to be 650 bases, is purified from a gel slice. Paired-end next generation sequencing is then performed. The frequency that a particular pair of barcodes is observed relative to the total number of reads provides a relative measure for the number of matings that were caused by the SAP pair associated with those two particular barcodes.
(§2) LIBRARY MATING ASSAYS: For library mating assays in which each isogenic strain was constructed individually and the barcode associated with each synthetic adhesion protein was determined with Sanger sequencing, one or both of the isogenic haploid strains from a one-to-one mating were replaced with a library of strains, all of the same mating type, displaying unique barcoded synthetic adhesion proteins. Each haploid strain in the library is individually grown to saturation, evaluated for surface expression strength as described previously, and mixed in equal volumes. 2.5 μL, if a MATa library, or 5 μL, if a MATalpha library, were then added to a mating as before. Following a 17 hour incubation, 100 μL were added to 50 mL of YPD with […] hygromycin and 100 nM β-estradiol (many-to-many matings only). After growing to saturation, cells were harvested by centrifugation, and lysed by heating to 70° C. for 5 min in 200 mM LiOAc and 1% SDS. Cellular debris was removed and incubated at 37° C. for 4 hours with 0.05 mg/mL RNase A. An ethanol precipitation was then performed to purify and concentrate the genomic DNA. A primary qPCR is performed to amplify the barcode region with standard adaptors and the PCR product is used as a template for a secondary qPCR to attach an index barcode and standard Illumina adaptors. This fragment is gel extracted, quantified with a Qubit and analyzed on a MiSeq next generation sequencer.
(§3) One-pot protein library characterization. A barcoding and recombination scheme was developed for the analysis of whole protein interaction networks in a single pot. Single MATa and MATα parent strain, yNGYSDa and yNGYSDα, were constructed and barcoded SAP cassettes were transformed into the strains. In addition to the knockout of Sag1 in both parent strains and complementary lysine and leucine markers, yNGYSDa contains a CRE recombinase expression cassette with an inducible promoter, pZ4. yNGYSDα constitutively expresses ZEV4, an activator of the pZ4 promoter with an estradiol binding domain for nuclear localization. SAP cassettes were assembled in one of two standardized vectors, pNGYSDa or pNGYSDα, for integration into the corresponding yeast parent strain. In addition to the surface expression cassette, each vector backbone contains a mating type specific florescent reporter cassette, a randomized ten-nucleotide barcode, a mating type specific primer binding site, and a lox recombination site. Upon mating, the addition of β-Estradiol (βE) induces CRE recombinase expression in diploid cells, consolidating the barcodes from each haploid chromosome so that next-generation sequencing can be used to count the frequency of interacting SAP pairs (FIG. 16A). […]

For a further experiment, the target named is Bcl2 (Homo sapiens, UniProt P10415). The conditions noted are these: vs Bcl2. On the procedure:
as §1, §2, §3

A further experiment deals with T2, Bfl1 (Homo sapiens, UniProt Q16548).
T2 sequence (Q16548 1-175): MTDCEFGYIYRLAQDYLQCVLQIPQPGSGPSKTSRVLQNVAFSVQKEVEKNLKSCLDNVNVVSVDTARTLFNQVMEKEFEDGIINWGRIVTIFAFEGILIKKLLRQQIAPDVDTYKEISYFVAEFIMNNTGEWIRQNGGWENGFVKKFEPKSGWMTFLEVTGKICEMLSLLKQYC
The conditions noted are these: vs Bfl1. On the procedure: as §1, §2, §3

Sequence of Bcl2 (P10415 whole entry, species assumed): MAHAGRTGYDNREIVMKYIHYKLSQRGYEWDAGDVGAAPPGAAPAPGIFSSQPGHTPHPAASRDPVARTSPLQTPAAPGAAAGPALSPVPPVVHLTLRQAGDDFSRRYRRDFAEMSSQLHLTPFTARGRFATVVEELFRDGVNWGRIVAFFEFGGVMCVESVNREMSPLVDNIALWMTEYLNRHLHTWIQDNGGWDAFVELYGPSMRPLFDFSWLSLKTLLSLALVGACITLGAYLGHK

For the substance “Bim: natural BH3 domain peptide binder of Bcl2 family proteins”, the “binding in batched mating (interaction profile, in words)” value (“binding in batched mating” for short) with BclW, in the experiment with Bcl2 and with Bfl1 was “nonspecifically” each time.
“Noxa: natural BH3 domain peptide binder of Bcl2 family proteins (PAELEVECATQLRRFGDKLNFRQKLL)”: the “binding in batched mating” value with Bfl1 is on record as “high specificity”.
For “Puma: natural BH3 domain peptide binder of Bcl2 family proteins (EEQWAREIGAQLRRMADDLNAQYERR)”, the “binding in batched mating” value with BclW, with Bcl2 and with Bfl1 was “nonspecifically” throughout.
